± gives the standard deviation of the averaged measurements.

This data set can be described thus: total protein half-life in vivo (active degradation + dilution); higher = more stable protein.
Setting [1] is: E. coli NCM3722 delta-clpP delta-lon delta-hslV, growth: N-lim chemostat, doubling time 6 h.
[2] abbreviates: E. coli NCM3722 delta-clpP, growth: N-lim chemostat, doubling time 6 h.
The mark [3] stands for this setting: E. coli NCM3722 delta-hslV, growth: N-lim chemostat, doubling time 6 h.
[4] abbreviates: E. coli NCM3722 delta-lon, growth: N-lim chemostat, doubling time 6 h.
Where [5] appears, read: E. coli NCM3722 delta-smpB, growth: N-lim chemostat, doubling time 6 h.
Setting [6] is: wild type E. coli NCM3722, growth: C-lim chemostat, doubling time 3 h.
[7] abbreviates: wild type E. coli NCM3722, growth: C-lim chemostat, doubling time 6 h.
Where [8] appears, read: wild type E. coli NCM3722, growth: C-lim chemostat, doubling time 12 h.
The mark [9] stands for this setting: wild type E. coli NCM3722, growth: N-lim chemostat, doubling time 6 h.
Where [10] appears, read: wild type E. coli NCM3722, growth: P-lim chemostat, doubling time 6 h.
Setting [11] is: wild type E. coli NCM3722, growth: P-lim chemostat, doubling time 12 h.
Setting [12] is: wild type E. coli NCM3722, growth: N-lim chemostat, doubling time 12 h.

Regarding “MSQPRPLLSPPETEEQLLAQAQQLSGYTLGELAALVGLVTPENLKRDKGWIGVLLEIWLGASAGSKPEQDFAALGVELKTIPVDSLGRPLETTFVCVAPLTGNSGVTWETSHVRHKLKRVLWIPVEGERSIPLAQRRVGSPLLWSPNEEEDRQLREDWEELMDMIVLGQVERITARHGEYLQIRPKAANAKALTEAIGARGERILTLPRGFYLKKNFTSALLARHFLIQ”, the “total protein half-life in vivo” value is, setting by setting: under setting [1], 5.31 ± 1.2 h; under setting [2], 4.23 ± 0.2 h; under setting [3], 3.6 ± 0.27 h; under setting [4], 5.21 ± 0.38 h; under setting [5], 3.89 ± 0.26 h; under setting [6], 2.83 ± 0.25 h. The “total protein half-life in vivo” value under setting [7] is 5.16 ± 0.45 h; the “total protein half-life in vivo” value under setting [8] was 8.72 ± 0.48 h; the “total protein half-life in vivo” value under setting [9] was determined as 4.92 h; the “total protein half-life in vivo” value under setting [10] came to 5.79 h; the “total protein half-life in vivo” value under setting [11] is 8.63 ± 0.7 h.

For “MTIRSYKNLNLVRANIETESRQFIENKNYSIQSIGPMPGSRAGLRVVFTRPGVNLATVDIFYNGDGSTTIQYLTGANRSLGQELADHLFETINPAEFEQVNMVLQGFVETSVLPVLELSADESHIEFREHSRNAHTVVWKIISTSYQDELTVSLHITTGKLQIQGRPLSCYRVFTFNLAALLDLQGLEKVLIRQEDGKANIVQQEVARTYLQTVMADAYPHLHVTAEKLLVSGLCVKLAAPDLPDYCMLLYPELRTIEGVLKSKMSGLGMPVQQPAGFGTYFDKPAAHYILKPQFAATLRPEQINIISTAYTFFNVERHSLFHMETVVDASRMISDMARLMGKATRAWGIIKDLYIV”, the “total protein half-life in vivo” value was determined as 5.71 h under setting [1]; 1.859 ± 0.0024 h under setting [3]; 1.2 h under setting [4]; 0.954 h under setting [5]; 1.22 h under setting [6]; 3.37 h under setting [8]. The “total protein half-life in vivo” value under setting [9] stood at 1.41 h, the “total protein half-life in vivo” value under setting [12] amounted to 4.02 ± 2.5 h, the “total protein half-life in vivo” value under setting [10] was 1.17 h and the “total protein half-life in vivo” value under setting [11] was found to be 3.31 ± 1.4 h.

Turning to “MNSLRPELLELTPQALTALSNAGFVKRSLKELENGNVPEISHENDALIATFSDGVRTQLANGQALKEAQCSCGANGMCRHRVMLVLSYQRLCATTQSTEKEEEWDPAIWLEELATLPDATRKRAQALVAKGITIELFCAPGEIPSARLPMSDVRFYSRSSIRFARCDCIEGTLCEHVVLAVQAFVEAKAQQAEFNHLIWQMRSEHVTSSDDPFASEEGNACRQYVQQLSQTLWLGGISQPLIHYEAAFNRALQAAETCNWRWVSESLRQLRASVDAFHARASHYNAGECLHQLAALNSRLNCAQEMARRDSIGEVPPVPWRTVVGSGIAGEAKLDHLRLVSLGMRCWQDIEHYGLRIWFTDPDTGSILHLSRSWPRSEQENSPAATRRLFSFQAGALAGGQIVSQAAKRSADGELLLATRNRLSSVVPLSPDAWQMLSAPLRQPGIVALREYLRQRPPACIRPLNQVDNLFILPVAECISLGWDSSRQTLDAQVISGEGEDNVLTLSLPASASAPYAVERMAALLQQTDDPVCLVSGFVSFVEGQLTLEPRVMMTKTRAWALDAETTPVAPLPSASVLPVPSTAHQLLIRCQALLIQLLHNGWRYQEQSAIGQA”, the “total protein half-life in vivo” value under setting [1] is 3.47 h.

Turning to “MVWLANPERYGQMQYRYCGKSGLRLPALSLGLWHNFGHVNALESQRAILRKAFDLGITHFDLANNYGPPPGSAEENFGRLLREDFAAYRDELIISTKAGYDMWPGPYGSGGSRKYLLASLDQSLKRMGLEYVDIFYSHRVDENTPMEETASALAHAVQSGKALYVGISSYSPERTQKMVELLREWKIPLLIHQPSYNLLNRWVDKSGLLDTLQNNGVGCIAFTPLAQGLLTGKYLNGIPQDSRMHREGNKVRGLTPKMLTEANLNSLRLLNEMAQQRGQSMAQMALSWLLKDDRVTSVLIGASRAEQLEENVQALNNLTFSTKELAQIDQHIADGELNLWQASSDK”, the “total protein half-life in vivo” value under setting [1] turned out to be 5.44 ± 0.59 h; the “total protein half-life in vivo” value under setting [2] was 5.3 ± 0.24 h; the “total protein half-life in vivo” value under setting [3] amounted to 4.93 ± 0.43 h; the “total protein half-life in vivo” value under setting [4] was 5.69 ± 0.77 h; the “total protein half-life in vivo” value under setting [5] turned out to be 4.18 ± 0.68 h; the “total protein half-life in vivo” value under setting [6] is 3.2 ± 0.16 h. For the same sequence, the “total protein half-life in vivo” value came out at 6.28 ± 0.24 h under setting [7]; 11.4 ± 1.3 h under setting [8]; 5.12 ± 0.82 h under setting [9]; 8.176 ± 0.024 h under setting [12]; 6.24 ± 0.32 h under setting [10]; 12.4 ± 1.1 h under setting [11].

In the case of “MASVSISCPSCSATDGVVRNGKSTAGHQRYLCSHCRKTWQLQFTYTASQPGTHQKIIDMAMNGVGCRATARIMGVGLNTILRHLKNSGRSR [P0CF07]”, the “total protein half-life in vivo” value is, setting by setting: under setting [1], 2.96 h; under setting [11], 2.5 h.

In the case of “MIKKTTEIDAILLNLNKAIDAHYQWLVSMFHSVVARDASKPEITDNHSYGLCQFGRWIDHLGPLDNDELPYVRLMDSAHQHMHNCGRELMLAIVENHWQDAHFDAFQEGLLSFTAALTDYKIYLLTIRSNMDVLTGLPGRRVLDESFDHQLRNAEPLNLYLMLLDIDRFKLVNDTYGHLIGDVVLRTLATYLASWTRDYETVYRYGGEEFIIIVKAANDEEACRAGVRICQLVDNHAITHSEGHINITVTAGVSRAFPEEPLDVVIGRADRAMYEGKQTGRNRCMFIDEQNVINRV”, the “total protein half-life in vivo” value stood at 1.44 h under setting [5] and 3.5 h under setting [12].

Consider “MSYQPQTEAATSRFLNVEEAGKTLRIHFNDCGQGDETVVLLHGSGPGATGWANFSRNIDPLVEAGYRVILLDCPGWGKSDSVVNSGSRSDLNARILKSVVDQLDIAKIHLLGNSMGGHSSVAFTLKWPERVGKLVLMGGGTGGMSLFTPMPTEGIKRLNQLYRQPTIENLKLMMDIFVFDTSDLTDALFEARLNNMLSRRDHLENFVKSLEANPKQFPDFGPRLAEIKAQTLIVWGRNDRFVPMDAGLRLLSGIAGSELHIFRDCGHWAQWEHADAFNQLVLNFLARP”, for which the “total protein half-life in vivo” value is, setting by setting: under setting [1], 5.3 ± 0.56 h; under setting [2], 2.05 ± 0.77 h; under setting [3], 2.34 ± 0.87 h; under setting [4], 2.71 h; under setting [5], 2.32 ± 0.21 h; under setting [6], 1.42 ± 0.3 h. The “total protein half-life in vivo” value is, setting by setting: under setting [7], 2.67 ± 0.065 h; under setting [8], 4.07 h; under setting [9], 1.93 h; under setting [12], 3.13 h; under setting [10], 3.21 h; under setting [11], 5.69 ± 1.3 h.

On to “MIETLLEVRNLSKTFRYRTGWFRRQTVEAVKPLSFTLREGQTLAIIGENGSGKSTLAKMLAGMIEPTSGELLIDDHPLHFGDYSFRSQRIRMIFQDPSTSLNPRQRISQILDFPLRLNTDLEPEQRRKQIIETMRMVGLLPDHVSYYPHMLAPGQKQRLGLARALILRPKVIIADEALASLDMSMRSQLINLMLELQEKQGISYIYVTQHIGMMKHISDQVLVMHQGEVVERGSTADVLASPLHELTKRLIAGHFGEALTADAWRKDR [P0AAH8]”, for which the “total protein half-life in vivo” value turned out to be 5.82 ± 0.14 h under setting [1]; 5.86 ± 0.16 h under setting [2]; 5.99 ± 0.16 h under setting [3]; 5.26 ± 1.3 h under setting [4]; 5.78 ± 0.3 h under setting [5]; 2.97 ± 0.16 h under setting [6]. The “total protein half-life in vivo” value under setting [7] stood at 5.78 ± 0.22 h; the “total protein half-life in vivo” value under setting [8] was determined as 11.5 ± 2.9 h; the “total protein half-life in vivo” value under setting [9] turned out to be 5.53 ± 0.077 h; the “total protein half-life in vivo” value under setting [12] came out at 12.1 ± 1.1 h; the “total protein half-life in vivo” value under setting [10] came out at 6.03 ± 0.55 h; the “total protein half-life in vivo” value under setting [11] came out at 12.51 ± 0.086 h.

For the origin of these results see the supplement of paper PMC11246515.
